Literature values as cited in article PMC3393814.

Target: Nrf2 14mer peptide (Homo sapiens)
Assay: ITC

Kd: 20 nM
Substance: Keap1 (from UniProt Q14145)
